Assay results reported in patent publication US20260184766A1.

B1: SKD chimeric bovine-human IgG1 (ultralong CDR3) (antibody)
VH: QVQLRESGPSLVKPSQTLSLTCTASGFSLSDKAVGWVRQAPGKALEWLGSIDTGGNTGYNPGLKSRLSITKDNSKSQVSLSVSSVTTEDSATYYCTTVHQRTSEKRSCPGGSSRRYPSGASCDVSGGACACYVSNCRGVLCPTLNEIVAYTYEWHVDAWGQGLLVTVSS
VL: QAVLNQPSSVSGSLGQRVSITCSGSSSNVGNGYVSWYQLIPGSAPRTLIYGDTSRASGVPDRFSGSRSGNTATLTISSLQAEDEADYFCASAEDSSSNAVFGSGTTLTVL
B2: R2D9 chimeric bovine-human IgG1 (ultralong CDR3) (antibody)
VH: QVQLRESGPSLVKPSQTLSLTCTASGFSLSDKAIGWVRQAPGKALEWLGSIDTRGNTGYNPGLKSRLSITKDSSKSQVSLSVNSVTTEDSATYLCAIVQQITHKTCPNGYNWFDRCCSWDGTCGDGCCSNRAWPSGNGRADSSIGETYGYEFHVAAWGQGLLVTVSS
VL: B1 VL
B3: SKM chimeric bovine-human IgG1 (ultralong CDR3) (antibody)
VH: QVQLRESGPSLVKPSQTLSLTCTASGFSLSDKAVGWVRQAPGKALEWLGSIDTGGNTGYNPGLKSRLSITKDNSKSQVSLSVSSVTTEDSATYYCTTVHQETLRSCPDGYIDNSGCTADWGCAALDCWRRRFGYHSTDPSHYTGATYIYTYSLHIDAWGQGLLVTVSS
VL: B1 VL
B4: R4C1 chimeric bovine-human IgG1 (ultralong CDR3) (antibody)
VH: QVQLRESGPSLVKPSQTLSLTCTASGFSLSDKAVGWVRQAPGKPLEWLGSIDTAENTGYNPGLKSRLSITKDNSKSQVSLSVSSVTTEDSATYYCATVHQKTRKEKNCPDGYIYSSNTASGYDCGVWICRRVGSAFCSRTGDYTSPSEFDIYEFYVEGWGQGLLVTVSS
VL: B1 VL

Experiments:
[1] = biological target: SARS-CoV-2 S variant K417N/E484K/N501Y (B.1.351, SA variant; beta lineage) carried by pseudotyped virus (SARS-CoV-2 B.1.351), P0DTC2; assay: cell-based or functional assay
[2] = biological target: SARS-CoV-2 S variant 484K carried by pseudotyped virus (SARS-CoV-2), P0DTC2; assay: cell-based or functional assay
[3] = biological target: SARS CoV-2 omicron variant spike RBD (SARS-CoV-2 omicron variant); assay: ELISA on omicron variant RBD (panel RBD), OD450
[4] = biological target: SARS CoV-2 omicron variant recombinant stabilized spike trimer (SARS-CoV-2 omicron variant)

Row | Binder | EC50 (pM), pseudovirus luciferase assay [1] | Neutralization of Pseudovirus (ng/mL; parameter not named) [1] | EC50 (pM), pseudovirus luciferase assay [2] | EC50 (read off the curve) [3] | EC50 (read off the curve) [4]
1 | B1 | > 1000 pM | > 1000 ng/mL | > 1000 pM | – | –
2 | B2 | – | – | – | 0.4 nM | 0.4 nM
3 | B3 | > 1000 pM | > 1000 ng/mL | > 1000 pM | – | –
4 | B4 | – | 375 ng/mL | – | – | –
